The series addresses RNA polymerase holoenzyme with sigma70 Q437A (Escherichia coli, UniProt P00579;P0A7Z4;P0A8V2;P0A8T7;P0A800 1-613;1-329;1-1342;1-1407;2-91, Q437A). Kind of series: fluorescence anisotropy.

B1: PR (WT) (dsDNA)
DNA 1: GCGTGTTGACTATTTTACCTCTGGCGGTGATAATGGTTGCATGTACTAAGGAGGTTGTATGGAACAACGCA
DNA 2: TGCGTTGTTCCATACAACCTCCTTAGTACATGCAACCATTATCACCGCCAGAGGTAAAATAGTCAACACGC
modifications: 5'-C6-amino linker
Turning to B1, binding was put at a Kd of 14.9 nM.

B2: P1 galP1+P2-P3+ (dsDNA)
DNA 1: TTTTCGCATCTTTTCGTTGCTATGGTTATTTCATACCATAAGCCTAATGGAGCGAATTATGAG
DNA 2: CTCATAATTCGCTCCATTAGGCTTATGGTATGAAATAACCATAGCAACGAAAAGATGCGAAAA
modifications: 5'-C6-amino linker
In the case of B2, binding was put at a Kd of 0.76 ± 0.1 nM.

Source of the values: publication PMC3592454.
